Measured values reported in publication PMC4595793, “Beauveria bassiana Lipase A expressed in Komagataella (Pichia) pastoris with potential for biodiesel catalysis” (Frontiers in Microbiology, 2015).

Substrate: CCCC(=O)Oc1ccc([N+](=O)[O-])cc1
Experiment: spectrophotometric p-nitrophenol release
Type: biochemical, Beauveria bassiana
Details: 25 mM phosphate buffer pH 6.0, 50°C, 2 min, free enzyme, 0.05% Triton X-100 in the general assay, Hill coefficient n printed 1.46
Text: spectrophotometric p-nitrophenol release on BbLA (Beauveria bassiana lipase A)

B1: BbLA (Beauveria bassiana lipase A) (Beauveria bassiana ARSEF 2860) (protein)
chain: LSADIDGAPLIHLDYATYRGSRVAGAGVDQFLGMRFAKPPLGDLRFRAPEEPFHEDQVQDATKLGALCVGTVDGSGVSPNDVFGEDCLFANLFKPANATTASKLPVWVFIQGGGYAHNSNGNYNGTQIVQQSGGNVVFVSFNYRVGVLGFLASEEVRKDGALNAGLLDQRLFLKWVQKYIGQFGGDPNHVVIHGDSAGGGSVSHHLTAYGGNDKENLFVGGIPESPFWPTQRKVDQMEFQYTRLLRDTKCDSLDCLRKLDVGALGNASQPSPFPEAHTEDPAPLWYWLPVIDGDLVQDNMYKQFLTGRFKRVPLLVGADTDEGTLFAVNASTETEVSSFLRANYPRLQEWQLDIVSTIYPKMKPLPKHAAYFPSAAAVYGDSTFVCAGNTMSDAISAFVGPDKLWNYRYNVADPEQVAEGFGVPHVSELGAIFGPDNIRGHEAKSLRTTNAPIVPVTMAYFTSFVRFLDPNTSRQPGSPLWQNWGAFVGEQGQRMRLETNNTAMETVPFDLVTKCALWKLLAESMDV
notes: 19-residue signal peptide removed (precursor 546 aa, 1,641 bp); alpha-factor secretion signal, C-terminal 6His (554 aa printed; b43 says N-terminal His); secreted by Komagataella pastoris GS115, N-glycosylated, about 78 kDa (60 kDa after EndoHf); Octyl-sepharose purified
  Km: 0.5546 µM
